Patent US20110054149A1

Biological target: GST-human NOGO-A56 (human) (UniProt Q9NQC3)
Assay: SPR (Biacore 3000), GST-human NOGO-A56 on CM5 chip, antibody as analyte; single experiment

GST-human NOGO-A56 (human), sequence (Q9NQC3 586-785): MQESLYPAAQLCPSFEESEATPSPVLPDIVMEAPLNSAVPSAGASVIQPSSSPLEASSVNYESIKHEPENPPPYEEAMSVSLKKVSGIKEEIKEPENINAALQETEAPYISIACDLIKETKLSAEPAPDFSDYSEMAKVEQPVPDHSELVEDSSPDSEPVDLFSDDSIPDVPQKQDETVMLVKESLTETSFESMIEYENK

- Kd: 0.057 nM
- koff: 8.25e-05 s⁻¹
- kon: 1.44e+06 M⁻¹ s⁻¹
Substance: 11C7 (chimeric version) (antibody)
